The chains are these.
B1: BIIB-9-3595 (antibody, V domains shown)
VH: EVQLVESGGGLVKPGGSLRLSCAASGFTFSSYSMNWVRQAPGKGLEWVSSISSSSSYIYYADSVKGRFTISRDNAKNSLYLQMNSLRAEDTAVYYCARDLGGYAGYYGMDVWGQGTTVTVSS
VL: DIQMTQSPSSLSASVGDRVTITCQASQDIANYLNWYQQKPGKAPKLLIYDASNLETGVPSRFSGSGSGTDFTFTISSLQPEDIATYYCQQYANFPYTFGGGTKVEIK
B2: BIIB-9-3764 (antibody, V domains shown)
VH: EVQLVESGGGLVKPGGSLRLSCAASGFTFGSYDMNWVRQAPGKGLEWVSSISSGESYIYYAESVKGRFTISRDNAKNSLYLQMNSLRAEDTAVYYCARDVGGYAGYYGMDVWGQGTTVTVSS
VL: DIQMTQSPSSLSASVGDRVTITCGANQYISDYLNWYQQKPGKAPKLLIYDAANLHTGVPSRFSGSGSGTDFTFTISSLQPEDIATYYCQQYARFPYTFGGGTKVEIK
B3: BIIB-9-3604 (antibody, V domains shown)
VH: EVQLVESGGGLVKPGGSLRLSCAASGFTFSSYDMVWVRQAPGKGLEWVSSISSGDSYIYYADSVKGRFTISRDNAKNSLYLQMNSLRAEDTAVYYCARDVGGYAGYYGMDVWGQGTTVTVSS
VL: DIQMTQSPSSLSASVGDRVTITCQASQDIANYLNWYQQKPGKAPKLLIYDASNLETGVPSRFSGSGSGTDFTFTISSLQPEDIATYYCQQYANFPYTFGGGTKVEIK
B4: BIIB-9-3601 (antibody, V domains shown)
VH: EVQLVESGGGLVKPGGSLRLSCAASGFTFSSFSMNWVRQAPGKGLEWVSSISSAGSYIYYADSVKGRFTISRDNAKNSLYLQMNSLRAEDTAVYYCARDVGGYAGYYGMDVWGQGTTVTVSS
VL: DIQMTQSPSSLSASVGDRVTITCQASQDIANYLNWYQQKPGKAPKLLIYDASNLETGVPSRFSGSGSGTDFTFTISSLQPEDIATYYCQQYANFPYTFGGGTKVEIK
B5: BIIB-9-3753 (antibody, V domains shown)
VH: EVQLVESGGGLVKPGGSLRLSCAASGFTFGSYDMNWVRQAPGKGLEWVSSISDSASYIAYADSVKGRFTISRDNAKNSLYLQMNSLRAEDTAVYYCARDVSGYAGYYGMDVWGQGTTVTVSS
VL: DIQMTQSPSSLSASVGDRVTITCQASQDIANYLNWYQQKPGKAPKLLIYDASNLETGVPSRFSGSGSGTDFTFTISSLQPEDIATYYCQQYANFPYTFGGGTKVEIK
B6: BIIB-9-3621 (antibody, V domains shown)
VH: EVQLVESGGGLVKPGGSLRLSCAASGFTFGSYSMAWVRQAPGKGLEWVSGISSSSGYIYYADSVKGRFTISRDNAKNSLYLQMNSLRAEDTAVYYCARDVGGYAGYYGMDVWGQGTTVTVSS
VL: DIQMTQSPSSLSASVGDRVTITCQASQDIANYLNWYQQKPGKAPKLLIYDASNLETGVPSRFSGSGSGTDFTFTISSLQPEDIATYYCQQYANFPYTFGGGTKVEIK
B7: BIIB-9-3647 (antibody, V domains shown)
VH: EVQLVESGGGLVKPGGSLRLSCAASGFTFSSYGMVWVRQAPGKGLEWVSSISSASSYIYYADSVKGRFTISRDNAKNSLYLQMNSLRAEDTAVYYCARDVGGYAGYYGMDVWGQGTTVTVSS
VL: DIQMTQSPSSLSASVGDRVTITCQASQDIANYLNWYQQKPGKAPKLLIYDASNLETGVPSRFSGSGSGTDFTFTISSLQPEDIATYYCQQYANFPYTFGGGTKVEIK
B8: BIIB-9-3754 (antibody, V domains shown)
VH: EVQLVESGGGLVKPGGSLRLSCAASGFTFGSYDMNWVRQAPGKGLEWVSSISSGESYIYYAESVKGRFTISRDNAKNSLYLQMNSLRAEDTAVYYCARDVGGYAGFYGMDVWGQGTTVTVSS
VL: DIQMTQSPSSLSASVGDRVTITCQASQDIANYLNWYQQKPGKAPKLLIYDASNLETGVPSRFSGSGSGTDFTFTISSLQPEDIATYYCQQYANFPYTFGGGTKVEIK
B9: BIIB-9-3617 (antibody, V domains shown)
VH: EVQLVESGGGLVKPGGSLRLSCAASGFTFSSYSMTWVRQAPGKGLEWVSSISSSGTYIYYADSVKGRFTISRDNAKNSLYLQMNSLRAEDTAVYYCARDVGGYAGYYGMDVWGQGTTVTVSS
VL: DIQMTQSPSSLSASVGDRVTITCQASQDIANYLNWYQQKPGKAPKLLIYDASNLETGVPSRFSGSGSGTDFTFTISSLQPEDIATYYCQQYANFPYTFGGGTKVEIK
B10: BIIB-9-3654 (antibody, V domains shown)
VH: EVQLVESGGGLVKPGGSLRLSCAASGFTFESYSMNWVRQAPGKGLEWVSGISSASSYIYYADSVKGRFTISRDNAKNSLYLQMNSLRAEDTAVYYCARDVGGYAGYYGMDVWGQGTTVTVSS
VL: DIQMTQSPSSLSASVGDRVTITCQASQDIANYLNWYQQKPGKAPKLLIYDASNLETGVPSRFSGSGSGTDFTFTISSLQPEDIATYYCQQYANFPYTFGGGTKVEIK
B11: BIIB-9-3618 (antibody, V domains shown)
VH: EVQLVESGGGLVKPGGSMRLSCAASGFTFSSYEMVWVRQAPGKGLEWVSYISSGSSYIYYADSVKGRFTISRDNAKNSLYLQMNSLRAEDTAVYYCARDVGGYAGYYGMDVWGQGTTVTVSS
VL: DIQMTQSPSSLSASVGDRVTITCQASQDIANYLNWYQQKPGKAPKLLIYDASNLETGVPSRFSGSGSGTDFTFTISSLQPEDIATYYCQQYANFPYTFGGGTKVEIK
B12: BIIB-9-3756 (antibody, V domains shown)
VH: EVQLVESGGGLVKPGGSLRLSCAASGFTFGSYDMNWVRQAPGKGLEWVSSISSGESYIYYAESVKGRFTISRDNAKNSLYLQMNSLRAEDTAVYYCVRDVGGYAGYYGMDVWGQGTTVTVSS
VL: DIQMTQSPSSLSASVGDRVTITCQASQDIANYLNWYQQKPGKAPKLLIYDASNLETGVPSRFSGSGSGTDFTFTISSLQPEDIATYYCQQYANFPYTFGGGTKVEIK
B13: BIIB-9-3649 (antibody, V domains shown)
VH: EVQLVESGGGLVKPGGSLRLSCAASGFTFSSYGMAWVRQAPGKGLEWVSGISSSSSYIYYADSVKGRFTISRDNAKNSLYLQMNSLRAEDTAVYYCARDVGGYAGYYGMDVWGQGTTVTVSS
VL: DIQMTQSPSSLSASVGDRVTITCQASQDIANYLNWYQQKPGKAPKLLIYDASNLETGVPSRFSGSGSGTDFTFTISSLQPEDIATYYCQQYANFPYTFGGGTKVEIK
B14: BIIB-9-3766 (antibody, V domains shown)
VH: EVQLVESGGGLVKPGGSLRLSCAASGFTFGSYDMNWVRQAPGKGLEWVSSISSGESYIYYAESVKGRFTISRDNAKNSLYLQMNSLRAEDTAVYYCARDVGGYAGYYGMDVWGQGTTVTVSS
VL: DIQMTQSPSSLSASVGDRVTITCEASEDISNYLNWYQQKPGKAPKLLIYDASNLQYGVPSRFSGSGSGTDFTFTISSLQPEDIATYYCSQYANFPYTFGGGTKVEIK
B15: BIIB-9-3650 (antibody, V domains shown)
VH: EVQLVESGGGLVQPGGSLRLSCAASGFTFGSYEMNWVRQAPGKGLEWVSAISASSSTIYYADSVKGRFTISRDNAKNSLYLQMNSLRAEDTAVYYCARDVGGYAGYYGMDVWGQGTTVTVSS
VL: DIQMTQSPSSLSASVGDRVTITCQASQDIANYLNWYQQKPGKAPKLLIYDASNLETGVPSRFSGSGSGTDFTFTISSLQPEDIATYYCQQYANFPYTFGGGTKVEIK
B16: BIIB-9-3745 (antibody, V domains shown)
VH: QVQLVQSGAEVKKPGASVKVSCKASGYTFTGYPMHWVRQAPGQGLEWMGSINPSRGSTSYAQKFQGRVTMTRDTSTSTVYMELSSLRSEDTAVYYCARDGPRVSDYYMDVWGKGTTVTVSS
VL: EIVLTQSPATLSLSPGERATLSCRASQSVSSYLAWYQQKPGQAPRLLIYDASNRATGIPARFSGSGSGTDFTLTISSLEPEDFAVYYCQQRDNWPFTFGGGTKVEIK
notes: daughter of BIIB-9-619
B17: BIIB-9-3675 (antibody, V domains shown)
VH: QLQLQESGPGLVKPSETLSLTCTVSGGSISSTSYYWVWIRQPPGKGLEWIGSITASGSTYYNPSLKSRVTISVDTSKNQFSLKLSSVTAADTAVYYCARDKYQDYSFDIWGQGTMVTVSS
VL: DIQMTQSPSSVSASVGDRVTITCRASQGIDSWLAWYQQKPGKAPKLLIYAASSLQSGVPSRFSGSGSGTDFTLTISSLQPEDFATYYCQQANFLPFTFGGGTKVEIK
notes: daughter of BIIB-9-578
B18: BIIB-9-3681 (antibody, V domains shown)
VH: QLQLQESGPGLVKPSETLSLTCTVSGGSISSGSYYWNWIRQPPGKGLEWIGSIQPSGSTYYNPSLKSRVTISVDTSKNQFSLKLSSVTAADTAVYYCARDKYQDYSFDIWGQGTMVTVSS
VL: DIQMTQSPSSVSASVGDRVTITCRASQGIDSWLAWYQQKPGKAPKLLIYAASSLQSGVPSRFSGSGSGTDFTLTISSLQPEDFATYYCQQANFLPFTFGGGTKVEIK
notes: daughter of BIIB-9-578
B19: BIIB-9-3698 (antibody, V domains shown)
VH: QLQLQESGPGLVKPSETLSLTCTVSGGSIASSSYYWSWIRQPPGKGLEWIGSIRGSGSTYYNPSLKSRVTISVDTSKNQFSLKLSSVTAADTAVYYCARDKYQDYSFDIWGQGTMVTVSS
VL: DIQMTQSPSSVSASVGDRVTITCRASQGIDSWLAWYQQKPGKAPKLLIYAASSLQSGVPSRFSGSGSGTDFTLTISSLQPEDFATYYCQQANFLPFTFGGGTKVEIK
notes: daughter of BIIB-9-578
B20: BIIB-9-3684 (antibody, V domains shown)
VH: QLQLQESGPGLVKPSETLSLTCTVSGGSISSVSYYWNWIRQPPGKGLEWIGSITYSGSTQYNPSLKSRVTISVDTSKNQFSLKLSSVTAADTAVYYCARDKYQDYSFDIWGQGTMVTVSS
VL: DIQMTQSPSSVSASVGDRVTITCRASQGIDSWLAWYQQKPGKAPKLLIYAASSLQSGVPSRFSGSGSGTDFTLTISSLQPEDFATYYCQQANFLPFTFGGGTKVEIK
notes: daughter of BIIB-9-578
B21: BIIB-9-3704 (antibody, V domains shown)
VH: QVQLQESGPGLVKPSQTLSLTCTVSGGSISSGAYAWSWIRQHPGKGLEWIGYIYYQGKTYYNPSLKSRVTISVDTSKNQFSLKLSSVTAADTAVYYCARDKYQDYSFDIWGQGTMVTVSS
VL: DIQMTQSPSSVSASVGDRVTITCRASQGIDSWLAWYQQKPGKAPKLLIYAASSLQSGVPSRFSGSGSGTDFTLTISSLQPEDFATYYCQQANFLPFTFGGGTKVEIK
notes: daughter of BIIB-9-578
B22: BIIB-9-3780 (antibody, V domains shown)
VH: QLQLQESGPGLVKPSETLSLTCTVSGGSISSSSYYWGWIRQPPGKGLEWIGSISYSGSTYYNPSLKSRVTISVDTSKNQFSLKLSSVTAADTAVYYCARDKYQDYSVDIWGQGTMVTVSS
VL: DIQMTQSPSSVSASVGDRVTITCRASQGIDSWLAWYQQKPGKAPKLLIYAASSLQSGVPSRFSGSGSGTDFTLTISSLQPEDFATYYCQQANFLPFTFGGGTKVEIK
notes: daughter of BIIB-9-578
B23: BIIB-9-1287 (antibody, V domains shown)
VH: QLQLQESGPGLVKPSETLSLTCTVSGGSISSSDYYWGWIRQPPGKGLEWIGSIYYSGSTYYNPSLKSRVTISVDTSKNQFSLKLSSVTAADTAVYYCARSPRHKVRGPNWFDPWGQGTLVTVSS
VL: EIVLTQSPGTLSLSPGERATLSCRASQSVSSSYLAWYQQKPGQAPRLLIYGASSRATGIPDRFSGSGSGTDFTLTISRLEPEDFAVYYCQQYHLHPTFGGGTKVEIK
notes: IgG
B24: BIIB-9-1281 (antibody, V domains shown)
VH: QVQLQQWGAGLLKPSETLSLTCAVYGGSFSGYYWSWIRQPPGKGLEWIGEIDHSGSTNYNPSLKSRVTISVDTSKNQFSLKLSSVTAADTAVYYCARTTRSKYYGMDVWGQGTMVTVSS
VL: DIQMTQSPSTLSASVGDRVTITCRASQSISSWLAWYQQKPGKAPKLLIYKASSLESGVPSRFSGSGSGTDFTLTISSLQPEDFATYYCQQAISLPITFGGGTKVEIK
notes: IgG

The target in one experiment is T1, free FIXa (activated Factor IX) (human, UniProt P00740 47-191; P00740 227-461).
T1 construct: BLI antigen bought from Haematologic Technologies (HCIXA-0050); also called factor IXa
Briefly: yeast display selection and BLI as in Examples 1 and 5.
In the case of B1, the binding result is given as “binds”. Still for that read-out and setting: to B2 belongs “binds”. On the same count and under the same terms, the result for B3 reads “binds”; that for B4, “binds”; that for B5, “binds”. The same measure, in the same setting: the result for B6 reads “binds”. Turning to B7, the binding result is listed as “binds”. Same read-out and setting: the result for B8 reads “binds”; that for B9, “binds”.

Take B10: the binding result is given as “binds”. Same read-out and setting: the result for B11 reads “binds”; that for B12, “binds”. With B13, the binding result is “binds”. On to B14, for which the binding result was “binds”. Same read-out and setting: to B15 belongs “binds”; to B16, “binds”; to B17, “binds”. On the same count and under the same terms, the result for B18 reads “binds”. On the same count and under the same terms, the result for B19 reads “binds”; that for B20, “binds”. In the case of B21, the binding result is “binds”.

With B22, the binding result is recorded as “binds”.

In another experiment the target is T1, free FIXa (activated Factor IX). Put plainly: BLI; class meaning: paragraph 914. In general terms: In BLI a coated tip is dipped into the sample, and binding shifts an interference pattern.
For B23, the binding result is reported as “binds”. On the same count and under the same terms, the result for B24 reads “binds”.

Another experiment addresses T2, FIXa-SM (FIXa+EGR-CMK) (human, UniProt P00740 47-191; P00740 227-461, EGR-CMK (L-Glu-Gly-Arg chloromethyl ketone) covalently bound to the active site).
T2 construct: BLI antigen bought from Haematologic Technologies (HCIXA-EGR); also called FIXa with substrate mimic
Put plainly: BLI; class meaning: paragraph 914.
As for B23, the binding result is reported as “binds”. In the case of B24, the binding result is given as “binds”.
